Data as given in paper PMC8867190, “Ultrasensitive DNA‐Biomacromolecule Sensor for the Detection Application of Clinical Cancer Samples”.

What was measured:
[1] = target: Luteinizing hormone (LH) (UniProt P01215;P01229 25-116;21-141); assay: electrochemical strand displacement (SWV); 10 pM-10 uM LH; detection limit 10 pM (not a Kd); displaces signal probe; 10 mM phosphate buffer, 1 M NaCl, pH 7.4, room temperature; 30 nM aptamer/signal duplex (prepared in 20 mM Tris, 50 mM MgCl2, pH 8.0, diluted 60 uL into 1940 uL PBS); conditions: protein: commercial; copies: 1;1; assayed prehybridized 1:1 with signal probe S3 (3'-MB), complementary to aptamer nt 1-15; S3 is displaced by target; G-quadruplex predicted
[2] = target: Neutrophil gelatinase-associated lipocalin (NGAL) (UniProt P80188 21-198); assay: electrochemical strand displacement (SWV); 100 nM NGAL; signal gain 200.85%; 10 mM phosphate buffer, 1 M NaCl, pH 7.4, room temperature; 30 nM aptamer/signal duplex (prepared in 20 mM Tris, 50 mM MgCl2, pH 8.0, diluted 60 uL into 1940 uL PBS); conditions: protein: commercial; assayed prehybridized with NGAL-SP S7 (3'-MB), displaced by target; printed S7 only partly complementary
[3] = target: Nucleolin (NCL) (UniProt P19338 2-710); assay: electrochemical strand displacement (SWV); 100 nM NCL; signal gain 357.19%; 10 mM phosphate buffer, 1 M NaCl, pH 7.4, room temperature; 30 nM aptamer/signal duplex (prepared in 20 mM Tris, 50 mM MgCl2, pH 8.0, diluted 60 uL into 1940 uL PBS); conditions: protein: commercial; assayed prehybridized with NCL-SP S10 (3'-MB), displaced by target; printed S10 only partly complementary
Chain of Nucleolin (NCL) (P19338 2-710): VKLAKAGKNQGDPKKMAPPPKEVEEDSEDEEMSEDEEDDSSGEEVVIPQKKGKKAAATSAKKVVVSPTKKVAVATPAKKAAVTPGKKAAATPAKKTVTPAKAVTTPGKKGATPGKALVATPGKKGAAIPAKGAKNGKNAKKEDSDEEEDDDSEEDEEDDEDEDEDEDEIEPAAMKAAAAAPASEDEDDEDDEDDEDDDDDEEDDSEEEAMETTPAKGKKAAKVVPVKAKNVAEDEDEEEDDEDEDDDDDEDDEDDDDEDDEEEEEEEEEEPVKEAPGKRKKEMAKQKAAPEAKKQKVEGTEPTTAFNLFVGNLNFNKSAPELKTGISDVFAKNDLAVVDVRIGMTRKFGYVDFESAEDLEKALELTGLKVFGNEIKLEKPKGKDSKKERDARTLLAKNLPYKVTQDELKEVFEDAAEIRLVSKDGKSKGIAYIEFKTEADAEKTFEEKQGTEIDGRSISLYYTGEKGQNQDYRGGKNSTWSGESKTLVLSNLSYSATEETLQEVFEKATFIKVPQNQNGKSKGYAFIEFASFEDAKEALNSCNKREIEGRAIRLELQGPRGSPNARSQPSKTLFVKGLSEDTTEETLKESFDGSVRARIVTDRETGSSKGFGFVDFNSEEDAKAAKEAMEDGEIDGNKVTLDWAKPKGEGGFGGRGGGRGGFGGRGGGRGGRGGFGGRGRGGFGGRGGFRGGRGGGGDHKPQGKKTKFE

Chain of Luteinizing hormone (LH) (P01215 25-116, chain 1 of 2): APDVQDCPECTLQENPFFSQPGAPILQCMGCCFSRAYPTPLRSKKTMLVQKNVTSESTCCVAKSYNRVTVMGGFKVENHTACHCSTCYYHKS
Chain of Luteinizing hormone (LH) (P01229 21-141, chain 2 of 2): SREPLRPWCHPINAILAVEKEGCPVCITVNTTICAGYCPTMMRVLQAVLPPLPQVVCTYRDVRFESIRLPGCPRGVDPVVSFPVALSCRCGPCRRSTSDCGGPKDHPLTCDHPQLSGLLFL
Chain of Neutrophil gelatinase-associated lipocalin (NGAL) (P80188 21-198): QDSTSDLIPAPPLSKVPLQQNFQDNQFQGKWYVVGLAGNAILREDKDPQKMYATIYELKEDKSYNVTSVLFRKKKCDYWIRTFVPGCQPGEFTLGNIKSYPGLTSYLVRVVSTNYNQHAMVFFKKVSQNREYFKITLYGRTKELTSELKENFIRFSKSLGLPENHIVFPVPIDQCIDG

Binder: TATGGTATGCTGTGTGGTATGGGGTGGCGTGCTCT (structured_DNA) [LH aptamer]
- binding result [1]: binds

B1: NGAL aptamer (ssDNA)
DNA: AGCAGCACAGAGGTCAGATGGCGCTGGATAGCAAGATCACGTTATCATCGTAAACCCTATGCGTGCTACCGTGAA
- binding result [2]: binds

Binder: GGTGGTGGTGGTTGTGGTGGTGGTGGTTTTTT (ssDNA) [Nucleolin aptamer]
- binding result [3]: binds
